This test has as its target F-SSB-Ct peptide (SSB-Ct with an N-terminal fluoresceine moiety) (E. coli). Put plainly: fluorescence polarisation. Background: In fluorescence polarisation assays a small probe gives low polarisation when free and higher when bound to something large.

One may read the Kd as the equilibrium constant for the complex coming apart. A low value points to tighter binding. In the case of SSB–ExoI fusion protein, the Kd came to 1100 nM.
